Experimental findings from patent publication US20200062863A1 (CSL BEHRING, published 2020) are described below.

For assay [1], the target named is T1, Mu-FXII N398K mutant with C-terminal 8xHis-tag (mouse, UniProt Q80YC5 20-597).
T1 construct: Mouse to rat residue change; culture supernatant; also called mutant c) N398K
T1 sequence: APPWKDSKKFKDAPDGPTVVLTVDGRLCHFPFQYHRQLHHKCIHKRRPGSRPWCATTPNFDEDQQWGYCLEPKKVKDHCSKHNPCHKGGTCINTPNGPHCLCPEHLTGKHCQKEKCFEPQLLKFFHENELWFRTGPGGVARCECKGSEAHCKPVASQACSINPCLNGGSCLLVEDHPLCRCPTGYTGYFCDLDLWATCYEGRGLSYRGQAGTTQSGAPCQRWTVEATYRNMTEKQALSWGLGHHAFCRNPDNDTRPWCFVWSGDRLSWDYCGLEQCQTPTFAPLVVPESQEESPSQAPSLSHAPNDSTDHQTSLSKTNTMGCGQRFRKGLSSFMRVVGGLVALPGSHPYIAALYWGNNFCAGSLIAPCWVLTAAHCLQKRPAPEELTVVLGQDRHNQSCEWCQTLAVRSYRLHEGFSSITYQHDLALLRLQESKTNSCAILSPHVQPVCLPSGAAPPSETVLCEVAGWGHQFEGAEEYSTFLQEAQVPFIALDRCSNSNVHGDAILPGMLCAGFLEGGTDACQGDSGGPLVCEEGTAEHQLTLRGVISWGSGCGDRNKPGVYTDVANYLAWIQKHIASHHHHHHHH
Kind of assay: Western blot, non-reducing, 3F7 mAb detected with anti-human IgG-FITC. The method, then: (§1) Proteins were then transferred electrophoretically onto nitrocellulose filters and blocked for 1 hour in 5% Milk powder in Tris-buffered saline with 0.05% Tween-20 (TTBS). Filters were then incubated for 1 hour with either 3F7 mAb or an anti-His mAb 3H3 (both at […] in TTBS with 5% Milk powder), washed thoroughly with TTBS, then incubated for a further hour with anti-human IgG-FITC or anti-mouse IgG-FITC, respectively (Millipore, USA; both at 0.25 mg/ml in TTBS with 5% Milk powder). Following further washing of membranes in TTBS, Ab-FITC bound proteins were visualized using a Typhoon variable mode analyzer (GE Healthcare, USA).

Assay [2] has as its target T2, Mu-FXII I438A mutant with C-terminal 8xHis-tag (mouse, UniProt Q80YC5 20-597).
T2 construct: Culture supernatant; also called mutant f) I438A
T2 sequence: T1 sequence with K379N, I419A
The description is as above. The method, then:
as §1

A further assay addresses T3, N376D.
T3 construct: also called Mu-FXII N376D mutant with C-terminal 8xHis-tag; mutant a)
T3 single chain: T1 sequence with N357D, K379N
In words: Western blot of culture supernatant (non-reducing SDS-PAGE) probed with 3F7 mAb, anti-human IgG-FITC. The method, then:
as §1

The next assay concerns the target T4, A385D.
T4 construct: also called Mu-FXII A385D mutant with C-terminal 8xHis-tag; mutant b)
T4 single chain: T1 sequence with A366D, K379N
The description is as above. The method, then:
as §1

Positions count from the first letter of the chain named.

B1: monoclonal antibody 3F7 (fully human IgG4/lambda) (antibody, V domains shown)
VH: EVQLLESGGGLVQPGGSLRLSCAASGFTFSKYIMQWVRQAPGKGLEWVSGIRPSGGTTVYADSVKGRFTISRDNSKNTLYLQMNSLRAEDTAVYYCARALPRSGYLISPHYYYYALDVWGQGTTVTVSS
VL: QSELTQPPSASGTPGQRVTISCSGSSSNIGRNYVYWYQQVPGTAPKLLIYSNNQRPSGVPDRFSGSKSGTSASLVISGLRSEDEADYYCAAWDASLRGVFGGGTKLTVLG
notes: also called 3F7 mAb; MAb 3F7
On to B1, for which the binding result in assay [1] is listed as “no binding”; in assay [2], “no binding”; with N376D it was “binds”; with A385D, “binds”.
